The text below walks through data of patent US20150158921A1.

Some targets named below: rat α6/α3β4 nAChR (rat) (UniProt P12392); rat α7 nAChR (rat) (UniProt Q05941); human α7 nAChR (human) (UniProt P36544); rat α4β2 nAChR (rat) (UniProt P09483).
Assay in all cases: cell-based or functional assay
For test [1], the target named is human α6/α3β2β3 nAChR (human) (UniProt P17787).
Test [2] deals with rat NMDA receptor NR1-2b/NR2A (rat) (UniProt P35439).
The target in test [3] is rat NMDA receptor NR1-2b/NR2C (rat) (UniProt P35439).
Test [4] deals with rat NMDA receptor NR1-2b/NR2B (rat) (UniProt P35439).
In test [5] the target is rat NMDA receptor NR1-2b/NR2D (rat) (UniProt P35439).

Several values for one entry are separate records, joined by “and”; a condition that tells them apart may be missing. Equal values may be shown once.

rat α6/α3β4 nAChR (rat), sequence (P12392 21-495): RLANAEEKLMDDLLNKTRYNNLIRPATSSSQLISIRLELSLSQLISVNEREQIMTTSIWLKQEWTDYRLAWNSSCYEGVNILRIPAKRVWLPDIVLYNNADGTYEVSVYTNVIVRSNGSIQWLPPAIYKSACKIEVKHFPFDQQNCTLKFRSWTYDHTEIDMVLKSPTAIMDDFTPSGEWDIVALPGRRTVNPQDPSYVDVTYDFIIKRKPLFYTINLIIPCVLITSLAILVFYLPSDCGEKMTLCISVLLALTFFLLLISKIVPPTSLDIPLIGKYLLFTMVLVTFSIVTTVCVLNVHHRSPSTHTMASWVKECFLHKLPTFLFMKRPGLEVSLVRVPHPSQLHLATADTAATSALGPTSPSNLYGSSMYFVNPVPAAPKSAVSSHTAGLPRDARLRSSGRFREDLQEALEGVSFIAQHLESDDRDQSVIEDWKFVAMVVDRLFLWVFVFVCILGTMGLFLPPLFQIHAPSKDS
human α7 nAChR (human), sequence (P36544 23-502): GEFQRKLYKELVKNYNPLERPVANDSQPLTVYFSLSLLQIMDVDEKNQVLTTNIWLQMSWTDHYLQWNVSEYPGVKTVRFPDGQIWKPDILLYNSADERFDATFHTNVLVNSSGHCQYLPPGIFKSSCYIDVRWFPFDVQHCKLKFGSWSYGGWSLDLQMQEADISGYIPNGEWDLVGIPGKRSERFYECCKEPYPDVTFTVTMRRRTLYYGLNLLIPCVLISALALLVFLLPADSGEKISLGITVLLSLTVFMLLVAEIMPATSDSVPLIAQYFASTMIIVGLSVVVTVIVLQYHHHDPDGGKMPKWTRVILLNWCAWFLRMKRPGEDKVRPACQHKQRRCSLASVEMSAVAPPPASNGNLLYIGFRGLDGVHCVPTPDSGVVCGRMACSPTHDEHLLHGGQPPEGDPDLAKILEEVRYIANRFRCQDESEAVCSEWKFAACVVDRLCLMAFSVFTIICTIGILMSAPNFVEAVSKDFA
rat α7 nAChR (rat), sequence (Q05941 23-502): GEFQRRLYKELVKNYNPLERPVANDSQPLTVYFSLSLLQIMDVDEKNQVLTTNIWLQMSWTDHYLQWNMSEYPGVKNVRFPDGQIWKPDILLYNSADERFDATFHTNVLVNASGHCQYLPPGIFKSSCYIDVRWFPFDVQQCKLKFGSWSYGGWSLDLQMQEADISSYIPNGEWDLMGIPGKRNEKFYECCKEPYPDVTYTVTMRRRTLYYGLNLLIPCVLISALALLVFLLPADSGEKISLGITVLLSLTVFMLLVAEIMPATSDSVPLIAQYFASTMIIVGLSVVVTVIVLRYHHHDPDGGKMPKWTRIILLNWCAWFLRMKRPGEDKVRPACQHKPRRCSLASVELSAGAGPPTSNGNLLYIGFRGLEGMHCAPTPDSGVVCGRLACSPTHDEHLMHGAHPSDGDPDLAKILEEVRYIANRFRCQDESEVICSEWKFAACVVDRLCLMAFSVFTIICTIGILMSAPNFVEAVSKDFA
human α6/α3β2β3 nAChR (human), sequence (P17787 26-502, chain 1 of 2): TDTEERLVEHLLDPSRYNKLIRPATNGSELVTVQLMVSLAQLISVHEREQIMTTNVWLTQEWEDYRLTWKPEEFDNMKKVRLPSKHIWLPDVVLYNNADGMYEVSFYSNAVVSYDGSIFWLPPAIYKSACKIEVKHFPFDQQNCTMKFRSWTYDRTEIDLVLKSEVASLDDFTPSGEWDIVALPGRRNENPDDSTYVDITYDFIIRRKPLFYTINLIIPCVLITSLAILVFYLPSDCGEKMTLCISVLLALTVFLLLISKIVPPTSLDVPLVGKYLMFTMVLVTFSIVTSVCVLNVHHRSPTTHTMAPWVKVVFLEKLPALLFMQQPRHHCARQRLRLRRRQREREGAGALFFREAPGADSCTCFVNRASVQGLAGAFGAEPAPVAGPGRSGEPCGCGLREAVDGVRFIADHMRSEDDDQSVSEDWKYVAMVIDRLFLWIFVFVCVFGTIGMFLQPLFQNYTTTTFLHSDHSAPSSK
human α6/α3β2β3 nAChR (human), sequence (Q05901 22-458, chain 2 of 2, further chain): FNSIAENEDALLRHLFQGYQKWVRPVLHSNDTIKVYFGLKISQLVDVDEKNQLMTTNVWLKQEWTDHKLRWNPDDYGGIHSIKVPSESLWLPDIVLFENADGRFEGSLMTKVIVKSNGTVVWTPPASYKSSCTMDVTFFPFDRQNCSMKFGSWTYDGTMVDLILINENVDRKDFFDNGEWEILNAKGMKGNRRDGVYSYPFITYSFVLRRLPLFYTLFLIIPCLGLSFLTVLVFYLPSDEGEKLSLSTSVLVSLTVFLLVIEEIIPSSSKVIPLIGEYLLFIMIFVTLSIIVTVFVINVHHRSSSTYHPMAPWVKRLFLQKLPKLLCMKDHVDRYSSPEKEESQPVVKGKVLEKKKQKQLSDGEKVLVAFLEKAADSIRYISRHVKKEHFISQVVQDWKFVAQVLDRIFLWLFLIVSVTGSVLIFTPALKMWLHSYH
rat α4β2 nAChR (rat), sequence (P09483 31-630, chain 1 of 2): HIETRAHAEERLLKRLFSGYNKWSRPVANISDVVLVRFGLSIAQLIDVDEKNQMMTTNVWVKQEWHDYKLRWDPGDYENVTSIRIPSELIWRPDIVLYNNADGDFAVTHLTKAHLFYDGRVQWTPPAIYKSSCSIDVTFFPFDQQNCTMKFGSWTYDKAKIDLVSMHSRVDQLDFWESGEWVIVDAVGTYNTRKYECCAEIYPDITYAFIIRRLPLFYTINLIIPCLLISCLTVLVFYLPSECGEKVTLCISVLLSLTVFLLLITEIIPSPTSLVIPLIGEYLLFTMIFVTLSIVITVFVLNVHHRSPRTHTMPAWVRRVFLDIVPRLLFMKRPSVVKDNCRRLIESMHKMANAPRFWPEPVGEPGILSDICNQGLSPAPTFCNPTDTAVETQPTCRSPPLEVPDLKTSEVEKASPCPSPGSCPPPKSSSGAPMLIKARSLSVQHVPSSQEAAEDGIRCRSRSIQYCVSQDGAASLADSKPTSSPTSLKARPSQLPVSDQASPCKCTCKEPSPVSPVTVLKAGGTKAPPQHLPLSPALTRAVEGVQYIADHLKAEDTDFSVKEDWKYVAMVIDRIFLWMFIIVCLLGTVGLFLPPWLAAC
rat α4β2 nAChR (rat), sequence (P12390 25-500, chain 2 of 2, further chain): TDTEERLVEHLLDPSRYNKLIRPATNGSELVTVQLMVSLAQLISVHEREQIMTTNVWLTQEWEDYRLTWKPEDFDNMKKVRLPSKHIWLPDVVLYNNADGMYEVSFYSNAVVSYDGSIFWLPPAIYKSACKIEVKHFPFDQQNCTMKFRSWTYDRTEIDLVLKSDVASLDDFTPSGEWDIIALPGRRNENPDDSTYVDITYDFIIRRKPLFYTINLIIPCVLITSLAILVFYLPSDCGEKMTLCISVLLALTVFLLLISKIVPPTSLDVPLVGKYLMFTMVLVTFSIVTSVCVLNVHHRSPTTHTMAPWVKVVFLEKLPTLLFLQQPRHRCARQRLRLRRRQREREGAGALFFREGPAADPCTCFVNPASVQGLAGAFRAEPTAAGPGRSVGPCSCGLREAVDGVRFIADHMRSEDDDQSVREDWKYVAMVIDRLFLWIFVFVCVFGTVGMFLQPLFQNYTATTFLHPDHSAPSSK

Turning to “αO-conotoxin GeXIVA13 (GeXIVA mature peptide isomer with disulfide bonds I-III, II-IV)”, the Half-blocking dose IC50, ACh-gated current, oocyte voltage clamp in [1] stood at 0.141 µM; with rat α6/α3β4 nAChR (rat), 0.483 µM; with rat α7 nAChR (rat), 4.96 µM; with human α7 nAChR (human), 3.3 µM. For the same substance, the Half-blocking dose IC50, NMDA receptor current, oocyte voltage clamp in test [2] is more than 10 µM; in [3] it was more than 10 µM; in test [4], > 10 µM and 17 µM; in test [5], more than 10 µM.
With “αO-conotoxin GeXIVA14 (GeXIVA mature peptide isomer with disulfide bonds I-IV, II-III)”, the Half-blocking dose IC50, ACh-gated current, oocyte voltage clamp with rat α4β2 nAChR (rat) is 0.2 µM; in test [1] it was 0.197 µM; with rat α6/α3β4 nAChR (rat), 0.611 µM; in the test with rat α7 nAChR (rat), 1.74 µM; with human α7 nAChR (human), 0.865 µM. In addition, the results for the Half-blocking dose IC50, NMDA receptor current, oocyte voltage clamp in test [2], in test [3] and in [5] were 7.4 µM, more than 10 µM and more than 10 µM, respectively.
